The supplement of paper PMC10567573

B1: FUNDC2 (parent)
chain: YIKVDWQRVEKDMKKAKEQLKIRK

Variants of: B1
Test: protein stability index of a GFP-peptide fusion (GPS, HEK-293T) (PSI 1-6); higher = more stable
Settings: c terminus: a fixed tail appended
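Also: lentivirally expressed fusions sorted by FACS into six bins by GFP to DsRed ratio, PSI derived from sequencing read proportions per bin multiplied by bin number.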

| Variant | protein stability index |
| --- | --- |
| YIKADWQRVEKDMKKAKEQLKIRK | 3.41 |
| YIKIDWQRVEKDMKKAKEQLKIRK | 2.53 |
| YIKHDWQRVEKDMKKAKEQLKIRK | 2.52 |
| YIKGDWQRVEKDMKKAKEQLKIRK | 2.36 |
| YIKCDWQRVEKDMKKAKEQLKIRK | 1.56 |
| YIKEDWQRVEKDMKKAKEQLKIRK | 1.81 |
| YIKFDWQRVEKDMKKAKEQLKIRK | 1.73 |
| YIKNDWQRVEKDMKKAKEQLKIRK | 2.13 |
| YIKVDWQRCEKDMKKAKEQLKIRK | 1.94 |
| YIKVDWQRPEKDMKKAKEQLKIRK | 1.81 |
| YIKVDWQRNEKDMKKAKEQLKIRK | 2.37 |
| YIKVDWQRKEKDMKKAKEQLKIRK | 2.45 |
| YIKVDWQRGEKDMKKAKEQLKIRK | 1.95 |
| YIKVDWQRIEKDMKKAKEQLKIRK | 2.28 |
| YIKVDWQRFEKDMKKAKEQLKIRK | 1.54 |
| YIKVDWQRVEKDMKKAKEQLHIRK | 1.74 |
| YIKVDWQRVEKDMKKAKEQLEIRK | 2.28 |
| YIKVDWQRVEKDMKKAKEQLIIRK | 1.68 |
| YIKVDWQRVEKDMKKAKEQLAIRK | 1.87 |
| YIKVDWQRVEKDMKKAKEQLMIRK | 1.96 |
| YIKVDWQRVEKDMKKAKEQLRIRK | 2 |
| YIKVDWQRVEKDMKKAKEQLVIRK | 2.19 |
| YIKVDWQRVEKDMKKAKEQLSIRK | 2.22 |
| YIKVDWQRVEKDMKKAKEQLFIRK | 1.69 |

| Variant | protein stability index |
| --- | --- |
| YIKVDWQRVEKDMKKAKEQLYIRK | 2.5 |
| YIKVDWQRVEKDMKKAKEQLNIRK | 1.91 |
| YIKVDWQRVEKDMKKAKNQLKIRK | 1.72 |
| YIKVDWQRVEKDMKKAKAQLKIRK | 1.97 |
| YIKVDWQRVEKDMKKAKLQLKIRK | 2.12 |
| YIKVDWQRVEKDMKKAKMQLKIRK | 1.59 |
| YIKVDWQRVEKDMKKAKIQLKIRK | 2.41 |
| YIKVDWQRVEKDMKKAKHQLKIRK | 2.41 |
| YIKVDWQRVEKDMKKAKWQLKIRK | 1.16 |
| YIKVDWQRVEKDMKKAKDQLKIRK | 1.44 |
| YIKVDWQRVEKDMKKAKVQLKIRK | 1.69 |
| YIKVDWQRVEKDMKKAKFQLKIRK | 1.65 |
| YIKVDWQRVEKDMKKAKRQLKIRK | 1.57 |
| YIKVDWQRVEKRMKKAKEQLKIRK | 1.91 |
| YIKVDWQRVEKNMKKAKEQLKIRK | 1.47 |
| YIKVDWQRVEKEMKKAKEQLKIRK | 1.82 |
| YIKVDWQRVEKPMKKAKEQLKIRK | 1.45 |
| YIKVDWQRVEKYMKKAKEQLKIRK | 3.43 |
| YIKVDWQRVEFDMKKAKEQLKIRK | 1.64 |
| YIKVDWQRVEPDMKKAKEQLKIRK | 2.5 |
| YIKVDWQRVESDMKKAKEQLKIRK | 1.97 |
| YIKVDWQRVETDMKKAKEQLKIRK | 2.56 |
| YIKVDWQRVEADMKKAKEQLKIRK | 2.37 |
| YIKVDWQRVEDDMKKAKEQLKIRK | 2.06 |

| Variant | protein stability index |
| --- | --- |
| GIKVDWQRVEKDMKKAKEQLKIRK | 4.26 |
| DIKVDWQRVEKDMKKAKEQLKIRK | 4.17 |
| VIKVDWQRVEKDMKKAKEQLKIRK | 2.53 |
| HIKVDWQRVEKDMKKAKEQLKIRK | 3.34 |
| KIKVDWQRVEKDMKKAKEQLKIRK | 3.09 |
| YIKVDWQRVEKDMKKAKEQLKIKK | 2.6 |
| YIKVDWQRVEKDMKKAKEQLKIQK | 2.07 |
| YIKVDWQRVEKDMKKAKEQLKIWK | 1.59 |
| YIKVDWQRVEKDMKKAKEQLKIYK | 1.67 |
| YIKVDWQRVEKDMKKAKEQLKIIK | 2.79 |
| YIKVDWQRVEKDMKKAKEQLKIPK | 1.63 |
| YIKVDWQRVEKDMKKAKEQLKIAK | 2.08 |
| YIKVDWQRVEKDMKKAKEQLKILK | 1.6 |
| YIKVDWQRVEKDMKKAKEQLKITK | 2.19 |
| YIKVDWQRVEKDMKKAKEQLKISK | 2.02 |
| YIKVDWQGVEKDMKKAKEQLKIRK | 1.71 |
| YIKVDWQTVEKDMKKAKEQLKIRK | 2.21 |
| YIKVDWQNVEKDMKKAKEQLKIRK | 1.79 |
| YIKVDWQYVEKDMKKAKEQLKIRK | 1.62 |
| YIKVDWQVVEKDMKKAKEQLKIRK | 1.74 |
| YIKVDWQIVEKDMKKAKEQLKIRK | 1.82 |
| YIKVDWQRVEKDMKKAFEQLKIRK | 2.62 |
| YIKVDWQRVEKDMKKAAEQLKIRK | 1.64 |
| YIKVDWQRVEKDMKKAVEQLKIRK | 1.64 |

| Variant | protein stability index |
| --- | --- |
| YIKVDWQRVEKDMKKAWEQLKIRK | 1.66 |
| YIKVDWQRVEKDMKKADEQLKIRK | 1.67 |
| YIKVDWQRVEKDMKKASEQLKIRK | 2.62 |
| YIKVDWQRVEKDMKKACEQLKIRK | 2.19 |
| YIKVRWQRVEKDMKKAKEQLKIRK | 1.78 |
| YIKVKWQRVEKDMKKAKEQLKIRK | 2.1 |
| YIKVNWQRVEKDMKKAKEQLKIRK | 2.19 |
| YIKVEWQRVEKDMKKAKEQLKIRK | 1.52 |
| YIKVPWQRVEKDMKKAKEQLKIRK | 2.21 |
| YIKVTWQRVEKDMKKAKEQLKIRK | 2.29 |
| YIKVDWQRVEKDMKKAKEQLKGRK | 1.83 |
| YIKVDWQRVEKDMKKAKEQLKSRK | 2.01 |
| YIKVDWQRVEKDMKKAKEQLKLRK | 2.12 |
| YIKVDWQRVEKDMKKAKEQLKCRK | 1.47 |
| YIKVDWQRVEKDMKKAKEQLKRRK | 1.29 |
| YIKVDWQRVEKDMKKAKEQLKHRK | 1.88 |
| YIKVDWQRVMKDMKKAKEQLKIRK | 1.73 |
| YIKVDWQRVHKDMKKAKEQLKIRK | 2.58 |
| YIKVDWQRVKKDMKKAKEQLKIRK | 1.73 |
| YIKVDWQRVLKDMKKAKEQLKIRK | 1.65 |
| YIKVDWQRVTKDMKKAKEQLKIRK | 2.36 |
| YIKVDWQRVNKDMKKAKEQLKIRK | 1.62 |
